Measurements taken from a protein production outcome set (Wang et al. 2014).

Assay: label from the status in PepcDB records

EYSENNAPLFIRAVNSVASTTGAPPWANLVSILEEKNGADPELLVYTVTLINKTLAALPDQDSFYDVTDALEQQGMEALVQRHLGTAGTDVDLRTQLVLYENALKLEDGDI
protein production: failed

MGAQKKPAAAKVREDSEDLSRQRLQAILLADSFTTQFRSITLERPKVLLPIVNIPMIDYTLAWLESAGIEEVFVFCCAHSSQIIDYLKKSEWYTRPNPNLLVRTIVSHNSTSVGDALRYIYEQQTETSQIQGDFVLVSGDTVSNMPLADLIQQHRDRKKKDEKAIMTMVFKKQSRLGIGSDQLFVAVDPLTKQLLHYEECNSRGGDFCLDKSLLDSTVLCSDMQDCYIDICSPEVLSLFEDNFDYQHMRRHFVNGLLVDDIMGYKIFTHEIQSSCYAARIDNLRSYDTVSKDIIQRWTYPYVPNIDFSGNRPVKLGRRGIYRASDAVQSHTADVGASTVIGYGTKIGNGGKIYNSVIGNGCCIGSNVVIQGSYIWNNVTIEDGCEIRNAIVCDGVKVRAGAVLQPGVVLSFSVVVGRDFVVPAYSKVSLLQQPTTEDSDEELEYADSSSGTADHSSGLNNLQIESKASELGPDGAGYIWEICDSAHDEEWKHSVVPIPMDKLADITGAMDDDDIEDDIVVPPSGELKSDTDIINTDANDSYGDFEREVEEEFLSAVEKDNKADIVIPLINSHRLAYNMDSADCAGAVFYSMMRLAVKSPHNSATELYRNAMGVITKWKGVLGFYLKQTDAQIEVIMKFEEMCQESEELSPLFAKLLPFLYDKDVVQEDAILRWGEEKAGADDCDKVYLNKCESFIKWLKEASEEEEEDS
protein production: failed

MSNKRKLWQIFGPVLCAFILLIILFLIPWQNGEKSDNALFKASVSQSQTVFKGQSIKQAAFEKNYVPFYGSSELSRMDALHPSVLAYKYKRNYRPFLLGGPGSQSLTHFFTMQETVNQLSNKKAVFIISPQWFTKQGQNPAAFGMYFSQLQAVDWILTAKDSVATRYAARRLLDMPAGTASETTKYALMTLASGQKLSKYQTLYLKARRRMLANEDNFFSSIGMTNNIPKIQKEAGKLPGTYAYDNLRQFANEQGQQGTTNNKFGISNGFFDKKLNNKHLKHLKNSQRDFDYTQSPEYADFELVLNELAHEHVNVLFIIPPVNEKWAKYTGLSQTMYQECVAKITKQLTSQGFNNIANLSKDGGKKFFMEDTIHLGWNGWLKVDQYVKPFMEEKNHPVNYKLNSYYFTKAWGNKTNVKMPNVKSKAAVDIKKN
protein production: failed

MALRNVPFRSEVLGWDPDSLADYFKKLNYKDCEKAVKKYHIDGARFLNLTENDIQKFPKLRVPILSKLSQEINKNEERRSIFTRKPQVPRFPEETESHEEDNGGWSSFEEDDYESPNDDQDGEDDGDYESPNEEEEAPVEDDADYEPPPSNDEEALQNSILPAKPFPNSNSMYIDRPPSGKTPQQPPVPPQRPMAALPPPPAGRNHSPLPPPQTNHEEPSRSRNHKTAKLPAPSIDRSTKPPLDRSLAPFDREPFTLGKKPPFSDKPSIPAGRSLGEHLPKIQKPPLPPTTERHERSSPLPGKKPPVPKHGWGPDRRENDEDDVHQRPLPQPALLPMSSNTFPSRSTKPSPMNPLPSSHMPGAFSESNSSFPQSASLPPYFSQGPSNRPPIRAEGRNFPLPLPNKPRPPSPAEEENSLNEEWYVSYITRPEAEAALRKINQDGTFLVRDSSKKTTTNPYVLMVLYKDKVYNIQIRYQKESQVYLLGTGLRGKEDFLSVSDIIDYFRKMPLLLIDGKNRGSRYQCTLTHAAGYP
protein production: not failed

MTQLIKSLPGWLKLMLIFPIFFLNGVLLSLIINRFRELFDYIIIATLVTFLLKLTINFLVSKGIGKRLAIFAVITISFALIALGGITLIPLMGNQLGNLSQDIPRWLSGSQEHLANLKNSTLFLTLDNAGVNVDDLFQKAYLTLSKELDRIGQISLKVLTETIGGVVDTLVILVLTIFLLVGGDTFWQGILSWLPSPWEKKIPQYAGEIFRDYFISRLILAAGSSMARLVVFMALGIPYSILFAFSLGLASLIPFAGAVVTLIGTLVLLLKGWVVAVKFFVSAIVIDQITDNGVAPKLMGDKIGLNPVWILISIFIGAEIAGLLGVLLAVPIASVIKKVIDDMRAGKTENEEIDTEEQVEVLPESLA
protein production: failed

MSLKIIAPTDKTITPSGTWSIGARAGDFVFIGGMHGTDRVTGKMVDGDEARIRRMFDNMLAAAEAAGATKADAVRLTVFVTDVAKYRPVVNKVQKDIWGDGPYPPRTVLQVPALDQGDIAEIDGTFYAPAEGHHHHHH
protein production: not failed

MSSFKGIFGFNRVELKDLLISSIAIAIVVVWPRGFPTFNIGFFLHFIAALLTVGIAFIFHELAHRTVARHFGAWSEFRAWYEGLALAIFLKIILGFTFIAPGAVYIHKDYLKTKENGLISVAGPLTNIVLAVLFMILPIPAIYYSGYYVDISSYGYFVNIFLAMFNLLPIYPFDGSKVMRWNFLVWAVLFIPLIVLYFFV
protein production: failed

MESTLSASNMQDPSSSPLEKCLGSANGNGDLDSEEGSSLEETGFNWGEYLEETGASAAPHTSFKHVEISIQSNFQPGMKLEVANKNNPDTYWVATIITTCGQLLLLRYCGYGEDRRADFWCDVVIADLHPVGWCTQNNKVLMPPDAIKEKYTDWTEFLIRDLTGSRTAPANLLEGPLRGKGPIDLITVGSLIELQDSQNPFQYWIVSVIENVGGRLRLRYVGLEDTESYDQWLFYLDYRLRPVGWCQENKYRMDPPSEIYPLKMASEWKCTLEKSLIDAAKFPLPMEVFKDHADLRSHFFTVGMKLETVNMCEPFYISPASVTKVFNNHFFQVTIDDLRPEPSKLSMLCHADSLGILPVQWCLKNGVSLTPPKGYSGQDFDWADYHKQHGAQEAPPFCFRNTSFSRGFTKNMKLEAVNPRNPGELCVASVVSVKGRLMWLHLEGLQTPVPEVIVDVESMDIFPVGWCEANSYPLTAPHKTVSQKKRKIAVVQPEKQLPPTVPVKKIPHDLCLFPHLDTTGTVNGKYCCPQLFINHRCFSGPYLNKGRIAELPQSVGPGKCVLVLKEVLSMIINAAYKPGRVLRELQLVEDPHWNFQEETLKAKYRGKTYRAVVKIVRTSDQVANFCRRVCAKLECCPNLFSPVLISENCPENCSIHTKTKYTYYYGKRKKISKPPIGESNPDSGHPKPARRRKRRKSIFVQKKRRSSAVDFTAGSGEESEEEDADAMDDDTASEETGSELRDDQTDTSSAEVPSARPRRAVTLRSGSEPVRRPPPERTRRGRGAPAASSAEEGEKCPPTKPEGTEDTKQEEEERLVLESNPLEWTVTDVVRFIKLTDCAPLAKIFQEQDIDGQALLLLTLPTVQECMELKLGPAIKLCHQIERVKVAFYAQYAN
protein production: failed

TSSLQGNLLISVPRDFGLLFIAPNLPTFMAKHPHLHIEVEFNDKKIDLLSEGYDLALRIGYMEDSSLVSRKIGTTTVHFAASPNYLETNGIPQTPDDLEHHNGLLYKNAMNQVNWVGSRINQTQRFKIQSKVVSNSGFALL
protein production: failed

MSQVASLLIALPLISAFFVPVLKQIKKSLIFPYLTLITLLQTGIAGWVFYEVYTTGKPILIYAGGWRPPVGINLYIGPFAALFILIIAIVSFLTSLFSMRMVKVEPIDKYAMLFLLLMLGATGMIATGDIFNLFVFMEITAITAYALTAYNKTGEAAEASMKYMILGGIGSSFFLIGVALIYGVTGTLNMAQLAEFASAGKIMPVVAQVGLSLIIFGLAVEAELFPLNAWAPDAYQAAPHPITVMFSAFVVKAGLYAMARILYLLQKVNGWDSVLKLLLIMATLTVIFAELSALRQKDVKRMIAYSSIGQVGLIALAFSLGTQAGVDAGVFHMLNHAIVKTMMFLGVGYVGVMVGGTRIEDFRGLGKRMPLTALSLSVGAISTVGVPLFNVFWSKFRIIVATIQAGFVWPAVLVLFASVVEAVYYFRLLHVMWFAGEGERIKEGWIVVFLLLLALIIVGIGIYPTPVWEIVKRAGSDIFAVKVYINNVPLLGVVQ
protein production: failed

METLKKNWTKFILSFIMLVLAIICVYTLSTYKSSEKNTGFLKMGGGFNKSFNSSSRKLNGQPNMKGAPAQHPSNSNANSKSAPPNNFNHNVSKPQRMMGGGEFNSSSKYSSEVLIYSLGFFAIVICAYLAIVKKKIKISTENRGFILAAFLVIGFLFRIIVGLLITGYVTDIGLYKQWALTAAKNLAAVYTNGSVDYPPVYLYVLSIIGKIASSSFMSNYSTLLIKLPSIIADIFSAYFVYRLSIKRFSYETSFALTLFYLFNPAILINSTLWGQADSFFTLLVILAVYFISEDKIVPSSIFFALSVLMKPQGIIFLPLVLFWYIKNKNLKSIFKSIASGFITTIIVLAPFSISKGNITWIFDLYTREVSEYPYASNNAFNFYSLIGANRVKDSNTMFIFSYHTWGMLFIVLITLISGFFYLKSKNKYASTLAALIQVVGVFNFSVGMHERYMFTAVLASILAYIYFKDKRLLLISLLLSFINYANMHTILFNRLNMNVNSSSSMLIVFISLLNITTFVYLIKVCFDLCLKKDIKVTEDIQNTL
protein production: failed

MRPSAPNIWIWKVSNLASDPRETVSGEWYAARSNLSSAARLRHGGTLLLVLDAKDNHVITKAEIKAVEISHRVGTIPREIHFPDGSLFETSDNEGVDRLLGLYLPKRAGFVHRLEQFRPRLIGITAAAVLLAYGTYKLALPAVVELAVAMTPPIVPKIMSASTMQALDQTVFSASELPLEEQNAIRVQFSRIAAHAEGSPEDYKLNFRKGGYIGPNAFALPDGTLVLTDELVELAGGDRQMIIGVLAHEIGHVEYEHSLRQLYRAAGVAGLVMLIAGDVGSAMEDILTQGGGLLALSHSRDAERQADQRSVELMRKADLDPTAIERFFALLEEKLGDKGGTSIISTHPGTPQRRKAIIDYNASLDNKPAGNLEHHHHHH
protein production: failed

MLWFGQPGPGGWNRKCLRPFTLPRGQHPQPSYGFPQVNEVVFSPGESHCATCSEDGSVRVWALASMELVIQFQVLNQSCLCLAWSPPCCGRPEQQRLAAGYGDGSLRIFSVSRTAMELKMHPHPVALTTVAFSTDGQTVLSGDKDGLVAVSHPCTGTTFRVLSDHQGAPISTICVTCKETQGHLPPSLAAFCPWDGALLMYVGPGVYKEVIIYNLCQKQVVEKIPLPFFAMSLSLSPGTHLLAVGFAECMLRLVDCAMGTAQDFAGHDNAVHLCRFTPSARLLFTAARNEILVWEVPGL
protein production: failed

MSSASSEAQRLARLALLQVVDTAAEPFFDALAAAAQAIAGTPIALVSLVDERRQWWKANIGLPGVSETPRELAFCTYTIQGDAVMEVRDAPADPRFHDNALVTDAPGIRYYAGAPIVLPDGLRMGTVCVIDQRPRALEPAQLQALQQLAKVAAEGLEQRRVMLEREAANAQLQQRLRESEAFLERTGRVAGVGGWEVDVASGTLIWSDQTCRLHDVPPGYRPSLTEAIGFYPLEARAVITEAVDACVRDGTSWDLELPLTSATGRRLWVHSTGSVEHVDGRKRLIGAVQDVTDRHRAVDALAASERKFRKMFQYSLGLICTHDMHGRLVSINPAAARSLGRSVEQMEGRSLVEFVRPERHAALRGYLSRMVLDGQDSGVIELVAGDGSLRHWQYHNVLDVESDATVVLAHAQDITNQYRQEKQLLEWSFTDPLTNCYNRRFLDELDKRDPAVRWGCIVVDLDKFKLVNDTHGHQRGDEVLVQMAWFLNQPLRTQDRLVRLGGDEFLVLLHQASQTQLDALKRDYMGASEDAPIRFTLGTALRQDGEALAAVVDRADHSLYSLRRARRGTGTSDQR
protein production: failed

MADLINILNHFVQEQPEAVAVRHTNDELTYKQLDEESSKLAHLLQDSKKPMILYGHMSPYMIVGMIGAIKSGCGYVPIDTSVPKERVNMIIDKVQPEIIFNTSDETLEQTNAQVLKVSDIQDSQYPIVFDSQMKQNDVVYTIFTSGSTGEPKGVQIEYASLNEFAEWMVSLNKTGTGKEWLNQAPFSFDLSVMAIYPCLTSGGTLNLVDKDMIKKPKLLNEMLVQTPMNVWVSTPSFIEMCLLLPNLNEQQYSSLKQFFFCGEILPHKTAKALVERFPNSMIYNTYGPTEATVAVTSIQITEEILNQYNPLPVGVARPGTKLFATEEGELVIEGQSVSLGYLKNEEKTTAVFNFEDGVRTYHTGDKAKIEDGLWFIQGRIDFQIKLNGYRMELEEIETQLRQSKHVREAVVVPVYKNGKVIHLIGAVVPTEPVEDNLAMTTHIKHELKSRLPEYMIPRKFEWMEQLPLTSNGKLDRKKIAEVVNG
protein production: failed
